Experimental data as given in paper PMC12622545, “An Allele of Glutamate Formiminotransferase Triggers 5‐Methyl‐Tetrahydrofolate‐to‐MeFox Conversion and Facilitates Folate Biofortification in Maize” (Advanced Science, 2025).

Assays:
Test in all cases: LC-MS of MeFox formation, initial rates, Michaelis-Menten fit
Details in all cases: 50 mM sodium phosphate pH 7.0, 10 mM beta-mercaptoethanol, 30 °C, 0.5 µM protein
SbGFT = molecular target: T1, SbGFT (Sorghum bicolor, UniProt C5WU82); format: biochemical
T1 construct: gene SORBI_3001G181300; synthetic gene, C-terminal 6xHis tag, E. coli BL21(DE3); monomer; 317 residues (apo crystal: A6-D317, C260S/C314S)
T1 sequence (C5WU82 1-317): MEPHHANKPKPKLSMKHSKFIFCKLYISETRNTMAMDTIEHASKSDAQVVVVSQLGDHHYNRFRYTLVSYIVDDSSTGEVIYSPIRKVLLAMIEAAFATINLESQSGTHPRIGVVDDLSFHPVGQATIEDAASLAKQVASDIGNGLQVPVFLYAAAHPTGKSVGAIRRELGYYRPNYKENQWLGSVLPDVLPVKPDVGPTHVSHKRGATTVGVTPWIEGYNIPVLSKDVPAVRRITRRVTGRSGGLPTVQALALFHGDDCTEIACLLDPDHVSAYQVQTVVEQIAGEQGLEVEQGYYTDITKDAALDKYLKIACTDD

[1] = substrate: CN1c2c(nc(N)[nH]c2=O)NC[C@@H]1CNc1ccc(C(=O)N[C@@H](CCC(=O)O)C(=O)O)cc1; format: biochemical, Zea mays
[2] = substrate: CN1c2c(nc(N)[nH]c2=O)NC[C@@H]1CNc1ccc(C(=O)N[C@@H](CCC(=O)O)C(=O)O)cc1; format: biochemical, Zea mays; remark: listed apart in the source
Excerpt: LC-MS of MeFox formation, initial rates, Michaelis-Menten fit on ZmGFT-Qi319 | reduced approximately by sixfold for the mutant ZmGFT‐Qi319^G232N

`CN1c2c(nc(N)[nH]c2=O)NC[C@@H]1CNc1ccc(C(=O)N[C@@H](CCC(=O)O)C(=O)O)cc1` [5-M-THF] was tested, and the K m (SbGFT) was “Converting analysis of wild‐type SbGFT and its mutant SbGFT^G219N”.

B1: ZmGFT-B73 (Zea mays) (protein)
chain: MEPHHANKPRPKLSATKHSKFISCKLYISESRNATAVDAVERASKSDPQVVVVSQFGDHHYNRFRYTLVSYIVVVDGGGSSAAGEATVVHSPIRKVLLAMIEAAFSSIDLESQSGAHPRIGVVDDLSFHPVGQATIEDAASLARQVASDIACIAAVPVFLYAAAHPAGKSVGAVRRELGYYRPNYRGNQWSGSVLPNVLPVKPDVGPAHVVSHKRGATTVGVTPWIENYNVPVLCKDVATVRRITRGVTGRSGGLPTVQALALFHGDDCTEIACLLDPDHASAYQVQTVVEQIAGDQGLEVEQGYYTDITKDEALDKYLKIACADD
notes: C-terminal 10xHis tag, modified pFastBac1, Sf-9 insect cells; monomer; annotated 326 residues; Asn228
In the case of B1, the Km [1] is reported as 3108.0 ± 2675.5 µM, the kcat [1] is reported as 0.0783 ± 0.055 s⁻¹ and the kcat/Km [1] is reported as 25.2 M⁻¹ s⁻¹.

B2: ZmGFT-B73 (Zea mays; N228G) (protein)
chain: MEPHHANKPRPKLSATKHSKFISCKLYISESRNATAVDAVERASKSDPQVVVVSQFGDHHYNRFRYTLVSYIVVVDGGGSSAAGEATVVHSPIRKVLLAMIEAAFSSIDLESQSGAHPRIGVVDDLSFHPVGQATIEDAASLARQVASDIACIAAVPVFLYAAAHPAGKSVGAVRRELGYYRPNYRGNQWSGSVLPNVLPVKPDVGPAHVVSHKRGATTVGVTPWIEGYNVPVLCKDVATVRRITRGVTGRSGGLPTVQALALFHGDDCTEIACLLDPDHASAYQVQTVVEQIAGDQGLEVEQGYYTDITKDEALDKYLKIACADD
notes: as for B1
For B2, the Km [1] was 888.0 ± 490.3 µM, the kcat [1] was 0.09 ± 0.0233 s⁻¹ and the kcat/Km [1] was 101 M⁻¹ s⁻¹.

B3: ZmGFT-Qi319 (Zea mays) (protein)
chain: MEPHHANKPKPRPKLSAKHSKFISCKLYISESRNATAVDAVERASKSDPQVVVVSQFGDHHYNRFRYTLVSYIVVDDGGGGGSSAAGEATVVVHSPIRKVLLAMIEAAFSSIDLESQSGAHPRMGVVDDLSFHPVGQATVEDAASLARQVASDIACIAAVPVFLYAAAHPAGKSVGAVRRELGYYRPNYRGNQWSGSVLPDVLPVKPDVGPAHVVSHKRGATTVGVTPWIEGYNVPVLCKDVATVRRITRGVTGRSGGLPTVQALALFHGDDCTEIACLLDPDHASAYQVQTVVEQIAGDQGLEVEQGYYTDITKDEALDKYLKIACADD
notes: natural allele; C-terminal 10xHis tag, modified pFastBac1, Sf-9 insect cells; monomer
With B3 the Km [1] was 153.1 ± 38.2 µM, the kcat [1] was 0.0317 ± 0.00167 s⁻¹ and the kcat/Km [1] was 207 M⁻¹ s⁻¹.

B4: ZmGFT-Qi319 (Zea mays; G232N) (protein)
chain: MEPHHANKPKPRPKLSAKHSKFISCKLYISESRNATAVDAVERASKSDPQVVVVSQFGDHHYNRFRYTLVSYIVVDDGGGGGSSAAGEATVVVHSPIRKVLLAMIEAAFSSIDLESQSGAHPRMGVVDDLSFHPVGQATVEDAASLARQVASDIACIAAVPVFLYAAAHPAGKSVGAVRRELGYYRPNYRGNQWSGSVLPDVLPVKPDVGPAHVVSHKRGATTVGVTPWIENYNVPVLCKDVATVRRITRGVTGRSGGLPTVQALALFHGDDCTEIACLLDPDHASAYQVQTVVEQIAGDQGLEVEQGYYTDITKDEALDKYLKIACADD
notes: as for B3
Molecule B4 has a Km [2] of 2209.0 ± 1046.0 µM, a kcat [2] of 0.075 ± 0.0533 s⁻¹ and a kcat/Km [2] of 34 M⁻¹ s⁻¹.
